In patent publication US20250313625A1 (ELPISCIENCE SUZHOU BIOPHARMA, published 2025):

T1: human LAG3, full length, stably expressed on cells (human, UniProt P18627 23-525)
T1 construct: whole, on cells; also called CHOK1-human LAG3
T1 sequence (looked up): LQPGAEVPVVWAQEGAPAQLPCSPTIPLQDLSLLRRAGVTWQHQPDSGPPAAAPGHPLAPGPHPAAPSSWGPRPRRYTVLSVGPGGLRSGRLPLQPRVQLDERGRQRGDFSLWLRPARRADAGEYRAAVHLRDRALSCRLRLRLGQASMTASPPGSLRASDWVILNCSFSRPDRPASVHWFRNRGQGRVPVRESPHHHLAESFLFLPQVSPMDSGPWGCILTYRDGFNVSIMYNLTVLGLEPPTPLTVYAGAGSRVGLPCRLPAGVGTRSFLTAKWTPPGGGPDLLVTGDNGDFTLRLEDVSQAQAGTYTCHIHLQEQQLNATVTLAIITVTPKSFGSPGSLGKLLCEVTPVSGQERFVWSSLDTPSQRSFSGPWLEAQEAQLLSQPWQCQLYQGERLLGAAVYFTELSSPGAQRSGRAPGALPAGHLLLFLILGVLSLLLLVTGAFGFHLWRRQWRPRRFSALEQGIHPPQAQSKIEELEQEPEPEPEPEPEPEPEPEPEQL

T2: mFc tagged human LAG3 ECD recombinant protein (human, UniProt P18627 23-450)
T2 construct: extracellular domain; purchased from Biointron; not shown: mouse IgG Fc (mFc) tag
T2 sequence (looked up): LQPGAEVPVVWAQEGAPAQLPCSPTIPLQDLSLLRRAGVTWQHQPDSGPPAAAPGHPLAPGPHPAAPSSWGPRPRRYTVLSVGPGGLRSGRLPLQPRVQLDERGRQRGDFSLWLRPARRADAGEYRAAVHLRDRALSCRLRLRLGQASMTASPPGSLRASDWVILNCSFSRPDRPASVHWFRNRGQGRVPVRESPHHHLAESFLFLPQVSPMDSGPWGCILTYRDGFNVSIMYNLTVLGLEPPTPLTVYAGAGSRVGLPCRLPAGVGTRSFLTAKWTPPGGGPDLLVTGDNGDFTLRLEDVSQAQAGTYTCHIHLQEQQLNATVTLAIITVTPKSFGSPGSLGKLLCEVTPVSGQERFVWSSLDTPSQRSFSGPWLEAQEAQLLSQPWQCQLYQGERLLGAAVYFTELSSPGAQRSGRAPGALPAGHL

T3: human LAG3 ECD recombinant protein (plate coated, tag not stated) (human, UniProt P18627 23-450)
T3 construct: extracellular domain
T3 sequence (looked up): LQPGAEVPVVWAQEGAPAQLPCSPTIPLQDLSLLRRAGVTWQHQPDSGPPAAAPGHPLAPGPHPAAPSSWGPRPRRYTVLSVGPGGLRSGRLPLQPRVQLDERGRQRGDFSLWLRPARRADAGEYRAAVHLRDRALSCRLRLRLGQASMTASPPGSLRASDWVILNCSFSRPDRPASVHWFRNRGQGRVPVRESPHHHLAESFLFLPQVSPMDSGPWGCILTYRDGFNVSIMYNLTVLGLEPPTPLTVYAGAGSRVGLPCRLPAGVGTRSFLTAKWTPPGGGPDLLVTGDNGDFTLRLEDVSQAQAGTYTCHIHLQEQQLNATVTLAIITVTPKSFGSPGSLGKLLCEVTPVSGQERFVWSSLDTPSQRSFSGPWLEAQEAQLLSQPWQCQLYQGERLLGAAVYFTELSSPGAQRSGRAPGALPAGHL

T4: hFc tagged human LAG3 D1-D2 recombinant protein (human, UniProt P18627 23-261)
T4 construct: range 23-261; generated by Chempartner; also called hLAG3 D1-D2; not shown: human IgG Fc tag
T4 sequence (looked up): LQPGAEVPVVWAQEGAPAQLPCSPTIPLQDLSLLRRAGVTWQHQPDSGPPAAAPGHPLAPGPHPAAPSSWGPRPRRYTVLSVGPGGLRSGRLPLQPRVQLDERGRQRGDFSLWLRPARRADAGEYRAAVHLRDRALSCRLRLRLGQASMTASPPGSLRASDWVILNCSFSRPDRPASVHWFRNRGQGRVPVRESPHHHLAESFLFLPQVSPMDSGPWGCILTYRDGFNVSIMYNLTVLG

T5: mouse LAG3, full length, stably expressed on CHOK1 cells (mouse, UniProt Q61790 24-521)
T5 construct: whole, on cells
T5 sequence (looked up): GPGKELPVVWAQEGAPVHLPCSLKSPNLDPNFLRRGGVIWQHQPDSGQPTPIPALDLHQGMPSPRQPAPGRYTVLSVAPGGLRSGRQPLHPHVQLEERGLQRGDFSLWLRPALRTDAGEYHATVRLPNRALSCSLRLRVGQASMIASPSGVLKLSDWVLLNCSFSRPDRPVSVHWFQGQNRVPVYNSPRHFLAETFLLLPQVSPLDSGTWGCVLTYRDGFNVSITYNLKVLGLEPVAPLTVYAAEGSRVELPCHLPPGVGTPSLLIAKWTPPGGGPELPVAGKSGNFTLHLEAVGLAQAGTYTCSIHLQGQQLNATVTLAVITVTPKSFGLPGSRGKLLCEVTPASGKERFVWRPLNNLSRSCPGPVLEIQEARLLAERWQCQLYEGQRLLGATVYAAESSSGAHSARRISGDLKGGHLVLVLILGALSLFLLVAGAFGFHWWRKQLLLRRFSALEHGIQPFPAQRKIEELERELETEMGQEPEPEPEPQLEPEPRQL

T6: hFc tagged human LAG3 ECD recombinant protein (human, UniProt P18627 23-450)
T6 construct: range 23-450; also called biotin labelled hFc tagged human LAG3 ECD; not shown: human IgG Fc tag
T6 sequence (looked up): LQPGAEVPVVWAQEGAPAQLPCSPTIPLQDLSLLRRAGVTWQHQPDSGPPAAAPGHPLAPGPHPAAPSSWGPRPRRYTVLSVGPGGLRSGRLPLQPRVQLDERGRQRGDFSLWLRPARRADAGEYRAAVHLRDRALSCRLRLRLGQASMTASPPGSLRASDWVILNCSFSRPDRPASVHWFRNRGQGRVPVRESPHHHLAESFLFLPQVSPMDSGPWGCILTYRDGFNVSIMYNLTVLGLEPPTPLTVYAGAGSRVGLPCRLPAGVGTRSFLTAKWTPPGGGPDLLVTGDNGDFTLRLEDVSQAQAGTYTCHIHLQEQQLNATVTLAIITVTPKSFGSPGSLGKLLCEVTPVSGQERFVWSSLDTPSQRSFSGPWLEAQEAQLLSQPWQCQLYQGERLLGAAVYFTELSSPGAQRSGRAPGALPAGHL

B1: 015c (antibody, human IgG4, V domains shown)
VH: EVQLQQSGPVLVKPGASVKLSCKASGFTFTDYYMNWVKLSHGKSLEWIGVINPFNGDTAYKQKFKGKATLTVDKSSSTAYMELNSLTSEDSAVYYCARDDGYYLYYFDSWGQGTTLTVSS
VL: DIQMTQSPSSLSASLGERVSLTCRASQDIGSRLNWLQQEPDGTIKRLIYATSSLDSGVPKRFSGSRSGSDYSLTISSLDSEDFVVYYCLQYASSPPTFGAGTKLELK
notes: human IgG4 S228P / kappa chimeric antibody; also called chimeric antibody 015; not shown: human kappa light chain constant region (pcDNA3.4-hIgGk vector)
B2: Antibody 015 (antibody, V domains shown)
VH: EVQLQQSGPVLVKPGASVKLSCKASGFTFTDYYMNWVKLSHGKSLEWIGVINPFNGDTAYKQKFKGKATLTVDKSSSTAYMELNSLTSEDSAVYYCARDDGYYLYYFDSWGQGTTLTVSS
VL: DIQMTQSPSSLSASLGERVSLTCRASQDIGSRLNWLQQEPDGTIKRLIYATSSLDSGVPKRFSGSRSGSDYSLTISSLDSEDFVVYYCLQYASSPPTFGAGTKLELK
notes: mouse hybridoma antibody
B3: Antibody 039 (antibody, V domains shown)
VH: EFQLQQSGPELVKPGASVKISCKASGYSFTDYNLNWVRQSNGKSLEWIGLVDPIYGTIRYNQNFKDKATLTVDQSSSTAYMQLNSLTSEDSAVYYCASIMTAVRYFDHWGQGTTLTVSS
VL: DVLMTQTPLFLPVSLGDQASISCRSSLNIVHSDGNTYLEWYLQKPGQSPKLLIYKVSNRFSGVPDRFSGSGSGTDFTLKISGVEAEDLGVYYCFQGSHVPPTFGGGTKLEIK
notes: mouse hybridoma antibody

Experiments:
[1] = target: T1, human LAG3, full length, stably …; test: FACS on 293F cells stably expressing human LAG3
Protocol: (§1) Briefly the antibodies were incubated with 2×10⁵ target cells at 4° C. for 1 hour. After washing, fluorescence labeled anti-mouse IgG 2nd antibody (Life Technologies) was added and incubated at 4° C. for 1 hour. Geometric median fluorescence intensity (MFI) was detected and EC₅₀ was calculated using GraphPad Prism9.0.
MFI was detected and EC₅₀ was calculated using GraphPad Prism9.0.

[2] = target: T2, mFc tagged human LAG3 ECD recombinant …; test: competitive FACS: mFc-LAG3 ECD binding to Raji cells (MHC II)
Protocol: Activity of the purified chimeric antibodies to block LAG3 and MHC II interaction was determined by competitive FACS assay. […] After washing, dye labeled anti-mouse Fc 2nd antibody (Sigma) was added and incubated at 37° C. for 1 hour. Fluorescence intensity was detected.

[3] = target: T3, human LAG3 ECD recombinant protein …; test: competitive ELISA format I: His-FGL1 binding to coated LAG3 ECD
Protocol: After washing, HRP labeled anti-His 2nd antibody (Sigma) was added and incubated at 37° C. for 1 hour. Then, 100 μl/well of TMB solution (Biotechnology) was added. After incubation for 15 minutes at room temperature, the reaction was stopped by the addition of 50 μl of 1N HCl. OD 450 nm was read. […] After washing, HRP labeled anti-SA 2nd antibody (Sigma) was added and incubated at 37° C. for 1 hour. Then, 100 μl/well of TMB solution (Biotechnology) was added. After incubation for 15 minutes at room temperature, the reaction was stopped by the addition of 50 μl of 1N HCl. OD 450 nm was read. […] The competition assay of format III is a competitive FACS assay. […] After washing, dye labeled anti-His 2nd antibody (Sigma) was added and incubated at 37° C. for 1 hour. Fluorescence intensity was detected.

[4] = target: T4, hFc tagged human LAG3 D1-D2 recombinant …; test: ELISA, coated hFc-hLAG3 D1-D2
Protocol: Binding activity of the purified hybridoma antibodies against human LAG3 was detected by ELISA assay using hFc tagged human LAG3 D1-D2 recombinant protein. Briefly the antibodies were incubated with ELISA microplate coated antigens at 37° C. for 1 hour. After washing, horseradish peroxidase (HRP) labeled anti-human IgG 2nd Ab (Sigma) was added and incubated at 37° C. for 1 hour. Then, 100 μl/well of TMB solution (Biotechnology) was added. After incubation for 15 minutes at room temperature, the reaction was stopped by the addition of 50 μl of 1N HCl. OD 450 nm was read and EC₅₀ was calculated using GraphPad Prism9.0.

[5] = target: T1, human LAG3, full length, stably …; test: FACS on 293F-human LAG3 cells
Protocol: as §1

[6] = target: T5, mouse LAG3, full length, stably …; test: FACS on CHOK1 cells expressing mouse LAG3
Protocol: as §1

[7] = target: T6, hFc tagged human LAG3 ECD recombinant …; test: competitive FACS: hFc-LAG3 ECD binding to Raji cells (MHC II)
Protocol: Competitive FACS assay was used to determine whether the purified hybridoma antibodies can block LAG3 and MHC II interaction. […] After washing, dye labeled anti-human Fc 2nd antibody (Sigma) was added and incubated at 37° C. for 1 hour. Fluorescence intensity was detected.

[8] = target: T6, hFc tagged human LAG3 ECD recombinant …; test: competitive ELISA: excess competitor, biotin hFc-LAG3 ECD, coated BAP-050
Protocol: (§2) Competitive ELISA assay was used for epitope binning of the purified hybridoma antibodies. […] After washing, HRP labeled anti-streptavidin (SA) 2nd antibody (Sigma) was added and incubated at 37° C. for 1 hour. Then, 100 μl/well of TMB solution (Biotechnology) was added. After incubation for 15 minutes at room temperature, the reaction was stopped by the addition of 50 μl of 1N HCl. OD 450 nm was read. Competition ratio was calculated.

[9] = target: T6, hFc tagged human LAG3 ECD recombinant …; test: competitive ELISA: excess competitor, biotin hFc-LAG3 ECD, coated BMS-986016
Protocol: as §2

Binder | EC50 [1] [nM] | TOP MFI [1] | IC50 [2] [nM] | TOP blocking (%) [2] [%] | Blocking ratio at 66.7 nM (%) [3] [%] | EC50 [4] [nM] | EC50 [5] [nM] | binding result [6] | IC50 [7] [nM] | TOP blocking (%) [7] [%] | % competition [8] [%] | % competition [9] [%]
B1 | 1.9 | 296 | 5.4 | 77.1 | 43.6 | – | – | – | – | – | – | –
B2 | – | – | – | – | – | 0.25 | 2.09 | no binding | 2.7 | 94.3 | 1.6 | 10
B3 | – | – | – | – | – | 0.04 | 1.38 | no binding | 5.2 | 94.9 | 2.6 | 19.3
